Test results published in PMC11998062, “One-Pot Total Synthesis of a Post-translationally Modified Max Transcription Factor Sheds Light on Ser-Phosphorylation and Lys-Acetylation Crosstalk in DNA Binding”.

B1: E-box DNA probe (dsDNA)
DNA 1: CCGGCTGACACGTGGTATTAAT
DNA 2: ATTAATACCACGTGTCAGCCGG

Columns and labels:
[1] = tested on: MaxS2pS11pK31AcK57Ac S2pS;S11pS;K31Ac;K57Ac;M1Nle;M65Nle;M148Nle, P61244-2; assay: BLI; conditions: EMSA: 10 mM MES pH 6.0, 150 mM KCl, 1 mM MgCl2, 10% glycerol, room temperature 30 min, 8% TBE gel; CD: same buffer; BLI: 1x PBS, 0.1% BSA, 0.02% Tween-20, 65 nM
MaxS2pS11pK31AcK57Ac S2pS;S11pS;K31Ac;K57Ac;M1Nle;M65Nle;M148Nle, P61244-2, sequence (P61244 whole entry, looked up): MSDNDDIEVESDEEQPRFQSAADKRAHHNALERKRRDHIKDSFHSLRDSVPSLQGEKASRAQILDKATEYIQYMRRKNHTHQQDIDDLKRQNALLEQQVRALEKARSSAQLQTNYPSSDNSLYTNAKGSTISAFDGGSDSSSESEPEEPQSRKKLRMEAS

[2] = biological target: Max-WT (UniProt P61244-2, M1Nle;M65Nle;M148Nle); assay: EMSA; 1 uM DNA, 0-8 uM protein, 1 mM MgCl2; EMSA: 10 mM MES pH 6.0, 150 mM KCl, 1 mM MgCl2, 10% glycerol, room temperature 30 min, 8% TBE gel; CD: same buffer; BLI: 1x PBS, 0.1% BSA, 0.02% Tween-20, 65 nM biotinylated DNA loaded (temperature not in material); conditions: tags: C-terminal extra K; chain copies: 2
Max-WT, sequence (P61244 other isoform, or with tags, fused parts or gaps M1Nle;M65Nle;M148Nle): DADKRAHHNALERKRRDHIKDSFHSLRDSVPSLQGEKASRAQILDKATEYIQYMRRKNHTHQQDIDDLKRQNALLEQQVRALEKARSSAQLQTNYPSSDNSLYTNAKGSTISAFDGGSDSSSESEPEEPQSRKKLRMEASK

Molecule | Kd [1] | binding result [2]
CCGGCTGACACGTGGTATTAAT (double strand) [biotinylated E-box DNA probe] | 1100 nM | 
B1 |  | binds
